Experimental data reported in patent publication US8815213B2, “RGD-(bacterio)chlorophyll conjugates for photodynamic therapy and Imaging of Necrotic tumors” (Yeda Research and Development Co. Ltd., priority 2008, dated 2014).
Counter-ions that a name gives are not always drawn. Like-named read-outs stand apart in the source and are kept apart here.

Tests used:
[1] = test system: MDA-MB-231-RFP non-necrotic tumors (~0.5 cm^3); settings: mouse, in vivo
Experimental: (§2) (vi) Mouse tumor model—MDA-MB-231-RFP fluorescent human breast cancer cells and MLS-mBanana fluorescent human ovarian cancer cells (5×10^6 in 100 μl saline) were trypsinated and collected at subconfluency and then inoculated into the back or mammary fat pad of female mice. Tumors were allowed to develop to two desired sizes—necrotic tumors (˜1 cm^3, within 3-4 weeks) and non-necrotic tumors (˜0.5 cm^3 within 1-2 weeks).
(§3) (vii) Whole body fluorescence imaging—Mice were anaesthetized by i.p. injection of 30 μl mixture of 85:15 ketamine:xylazine. […] Red fluorescent protein (RFP), pRSETB-mBanana and the photosensitizers fluorescence were monitored by in-vivo optical imaging system, IVIS®100 (Xenogen Corp., Alameda, Calif.). Main filter set for tumor imaging comprised excitation filter at 500-550 nm and emission filter at 575-650 nm; Background filter set for subtracting tissue auto-fluorescence comprised excitation filter at 460-490 nm and emission filter at 575-650 nm. Drugs imaging main filter set comprised excitation filter at 665-695 nm and emission filter at 810-875 nm. Images were obtained during the same exposure time and are illustrated on the same linear color scale to allow for a qualitative comparison.
(§4) The same parameters were next examined in tumors ≦0.5 cm^3, which are non-necrotic.

[2] = test system: MLS-mBanana necrotic tumor domains; assay: Excised tumor fluorescence imaging, MLS-mBanana; type: in vivo, mice; settings: 7 days post drug injection
Experimental: (§1) Mice were sacrificed, tumors were excised, cut in half and imaged at different time intervals: 10 min, 1, 4 and 24 h, 3, 5 and 7 days for MDA-MB-231-RFP and 7 days for MLS-mBanana using the Xenogen IVIS® System. Filter sets used for the fluorescence imaging are described in (vii).
Here the results were somewhat different. In most cases the necrosis pattern in this type of tumor was not central, namely, there was a wide spread necrosis that was not specifically located in the middle of the tumor or generated from one place in the tumor. In these cases, the accumulation was not as prolonged. In the few cases where central necrosis was observed, the accumulation pattern was similar to that in the MDA-MB-231-RFP tumors. FIGS. 31-32 show the results obtained 7 days post drug injection.

[3] = test system: MDA-MB-231-RFP necrotic tumors; assay: Fluorescence signal measurement in necrotic tumors, tumor vs. collateral side; type: in vivo; settings: average of 9 mice
Experimental: (viii) Fluorescence signal measurement in necrotic tumors—Tumor margins—region of interest (ROI), from the whole body in-vivo images was marked and the fluorescence signal within the circled margins was expressed in photon/sec.
The same ROI was used to measure photon/sec in the collateral side. In addition, for background measurements, tumor and collateral side ROIs were measured in three untreated mice and averaged. Measured values of the fluorescence from each ROI were divided by the area to provide normalized fluorescence signal intensity in photon/sec/cm^2. Signal measurements were collected from 15 min to 216 h post compound 13 injection. In each time point, the background was subtracted and the average was calculated as was the ratio between the fluorescence in the tumor margins and the collateral side.
In order to evaluate semi-quantitatively the accumulation pattern of compound 13 in necrotic tumors, the average fluorescence signal for compound 13 in necrotic tumors of 9 mice was calculated and plotted over 216 h, at several time points (FIG. 8). From 12 h post injection and onward the fluorescence signal from the tumor became distinctively stronger than that of an equivalent control region on the collateral side. The ratio of the fluorescence between the tumor and the collateral side increased in time and reached a plateau at ˜8 from 192 h.

[4] = test system: orthotopic human breast MDA-MB-231-RFP primary tumor, necrotic (~1 cm^3); settings: mouse, in vivo
Experimental: as §2, §3
The accumulation pattern of compound 13 in necrotic MDA-MB-231-RFP tumors (≧1 cm^3) in vivo was examined. […] Whole animal images were recorded concomitantly, using the filter sets as described in Materials and Methods section (vii) above. Dynamic fluorescence images were acquired every 1-1.5 h for 9 h, and at 24 h post injection of compound 13 (FIGS. 4A-4B), and then for every 24 h for the next 7 days (FIGS. 5A-5B).

[5] = test system: human ovarian MLS-mBanana primary tumors, necrotic (>1 cm^3); assay: In-vivo NIR fluorescence imaging of uptake in MLS-mBanana primary necrotic tumors; set-up: species or system CD-1 nude female mice
Excerpt: In order to establish the generality of the results obtained in the experiments above, the accumulation of compound 13 in the necrotic domain was further examined in a different tumor type, generated from MLS-mBanana human ovarian cancer cell line. […] Shortly after injection, the compound 13 NIR fluoresces was mostly detected from the liver and the tumor.

[6] = test system: MDA-MB-231-RFP primary non-necrotic tumors; assay: Competition assay between compound 13 and free c(RGDfK) binding; type: in vivo, mice; settings: 24 h
Experimental: (ix) Competition assay between compound 13 and free c(RGDfK) binding—Mice were injected with excess (8.5 μmol) of free c(RGDfK) peptide one hour prior to the injection of compound 13 (140 nmol). The control group was injected only with compound 13 (140 nmol). Fluorescent images were taken 24 h post compound 13 injection. Fluorescence imaging main filter set was used as described in (vii).
Compound 13 was administrated with or without prior injection of c(RGDfK) as described in Example 3.

[7] = test system: MLS-mBanana non-necrotic tumors (~0.5 cm^3); settings: mouse, in vivo
Excerpt: Red fluorescent protein (RFP), pRSETB-mBanana and the photosensitizers fluorescence were monitored by in-vivo optical imaging system, IVIS®100 (Xenogen Corp., Alameda, Calif.). Main filter set for tumor imaging comprised excitation filter at 500-550 nm and emission filter at 575-650 nm; Background filter set for subtracting tissue auto-fluorescence comprised excitation filter at 460-490 nm and emission filter at 575-650 nm. Drugs imaging main filter set comprised excitation filter at 665-695 nm and emission filter at 810-875 nm. Images were obtained during the same exposure time and are illustrated on the same linear color scale to allow for a qualitative comparison.

[8] = test system: MDA-MB-231-RFP necrotic tumor domains; assay: Excised tumor fluorescence imaging, viable versus necrotic domains; type: in vivo, mice
Experimental: as §1
The markedly different dynamic fluorescence patterns of necrotic and non-necrotic breast tumor xenografts implanted in the mammary pads, motivated investigation of the correlation between the tumor histology and compound 13 fluorescence signal accumulation. […] Images were taken at several time points (10 min, 1, 4 and 24 h, 3, 5 and 7 days post injection) using Xenogen IVIS® System as described in Materials and Methods, section (vii). Results shown in FIGS. 23-29 present compound 13 fluorescence accumulation at different time points. For each time point, 3 animals were tested. […] At 4 h, there was some diffusion towards the necrotic domain. […] In this set of experiments it was shown that as time progresses, compound 13 moves through the viable domain into the necrotic domain and accumulates there specifically for a long period of time.
In view of the pattern of accumulation observed for compound 13, other Bchl derivatives were tested. […] Images were taken using Xenogen IVIS® System as described above. […] Similar results were observed when tumors were excised 3 and 5 days post drug injection (N=3 for each time point).

[9] = test system: MDA-MB-231-RFP non-necrotic and necrotic tumors at the mammary pad; assay: Uptake of compound 25 in MDA-MB-231-RFP primary, necrotic and non necrotic tumors; type: in vivo, CD1-nude mice
Experimental: Two experiments were performed in order to determine whether the tumor up-take of compound 13 and the resulted accumulation of the NIR fluorescence signal are driven by the RGD moiety. In the first experiment the accumulation of the fluorescence signal at different times after compound 13 injection was compared to that of free 2H-MLT (compound 25) injection to CD1-nude mice grafted with MDA-MB-231-RFP non-necrotic (≦0.5 cm^3) and necrotic (˜1 cm^3) tumors at the mammary pad. The second experiment was a competition assay between compound 13 and free c(RGDfK).
Dynamic fluorescence images were acquired for both necrotic and non necrotic tumors every 1-1.5 h for 8.5-9 h, and at 24 h after initial injection of compound 25 (FIGS. 18A-18B and 20A-20B) and for every 24 h for the following three days (FIGS. 19A-19B and 21A-21B). […] The fluorescence signal values were ˜2 orders of magnitude smaller than the maximally observed values for compound 13 (at much longer time intervals). The fluorescence signal dropped down to non-significant values already at 20 min post injection. Meanwhile, the fluorescence signal accumulated mostly in the liver and in the heart.

[10] = test system: MDA-MB-231-RFP non-necrotic tumors (~0.5 cm^3); assay: In-vivo whole body NIR fluorescence imaging of drug up-take in primary non-necrotic MDA-MB-231-RFP xenograft tumors
Experimental: as §2, §3, §4

[11] = test system: xenografts of primary tumors; settings: up to; cited from earlier work

Q: What does the source list for `CC[C@H]1c2cc3[nH]c(c(CC(=O)OC)c4nc(cc5[nH]c(cc(n2)[C@@H]1C)c(C(C)=O)c5C)[C@@H](C)[C@@H]4CCC(=O)NCCCC[C@@H]1NC(=O)[C@@H](Cc2ccccc2)NC(=O)[C@H](CC(=O)O)NC(=O)CNC(=O)[C@H](CCCNC(=N)N)NC1=O)c(C(=O)NCCS(=O)(=O)O)c3C` [compound 13, 3^1-oxo-15-methoxycarbonylmethyl-Rhodobacteriochlorin 13^1-(2-sulfoethyl) amide-17^3-c(RGDfK)amide potassium salt]?
A: clearance from the tumor after accumulation [1]: < 24 h; complete drug clearance by that time [1]: ≤ 3 days; fluorescence from the non-necrotic tumors [1]: practically no fluorescence; time of peak tumor fluorescence, averaged measurements [1]: 1 to 6.5 h; presence of drug in excised tumor ([2]; central necrosis): clearly present in the necrotic domain; presence of drug in excised tumor ([2]; no central necrosis): not present; ratio of the fluorescence between the tumor and the collateral side, plateau ([3]; from 192 h post injection): ~8; time from which tumor fluorescence signal is distinctively stronger than collateral side ([3]; post injection): ≥ 12 h; time of peak tumor concentration ratio, compared to other organs [4]: ≥ 48 h; clearance from the liver in the following days ([4]; iv, 15 mg/kg): completely clearing from the liver; clearance from the tumor thereafter ([4]; iv, 15 mg/kg): extremely slow clearance; clearance compared with MDA-MB-231-RFP necrotic tumors ([5]; mouse, in vivo): markedly faster; clearance from the tumor almost completed ([5]; mouse, in vivo): 3 days; complete drug clearance by that time ([5]; mouse, in vivo): ≤ 4 days; time of maximum concentration in the necrotic zone ([5]; mouse, in vivo): 24 h; concentration in necrotic tumors versus non-necrotic tumors ([5]; same linear fluorescence scale, 2 days post injection): much higher; accumulation in the tumor ([6]; 140 nmol alone (control group)): detectable; accumulation in the tumor ([6]; 140 nmol, 1 h after 8.5 μmol free c(RGDfK)): no accumulation in the tumor was detected; almost complete drug clearance by that time [7]: ≤ 4 days; time at which NIR fluorescence reached peak values in the tumor [7]: ~1 h; time of peak tumor fluorescence, average measurements [7]: 1 to 3.5 h; location of drug fluorescence in excised tumor ([8]; 10 min to 4 h post drug injection, 15 mg/kg): only at the viable area; location of drug fluorescence in excised tumor ([8]; 24 h post injection): higher drug fluorescence from the necrotic domain; location of drug fluorescence in excised tumor ([8]; from three days post injection (3, 5 and 7 days)): shifted completely to the necrotic zone

Q: With `CC[C@H]1c2cc3[nH]c(c(CC(=O)OC)c4nc(cc5[nH]c(cc(n2)[C@@H]1C)c(C(C)=O)c5C)[C@@H](C)[C@@H]4CCC(=O)O)c(C(=O)NCCS(=O)(=O)[O-])c3C.[K+]` [compound 25, 3^1-oxo-15-methoxycarbonylmethyl-Rhodo-bacteriochlorin 13^1-(2-sulfoethyl) amide potassium salt] as the molecule, how does the “accumulation in small (non-necrotic) and large (necrotic) tumors” value ([9]; mouse, in vivo) read?
A: Its value is “no short or long term accumulation was observed”.

Q: What about the “fluorescence signal values, smaller than the maximally observed values for compound 13” value ([9]; mouse, in vivo) of the same molecule?
A: Its value is ~2 orders of magnitude.

Q: What about the “time at which fluorescence signal dropped to non-significant values” ([9]; post injection) of the same molecule?
A: The value was no more than 20 min.

Q: And the “time of maximal concentration (NIR fluorescence signal) in the tumor” value ([9]; post injection, if any concentration was observed at all)?
A: Its value is 5 to 10 min.

Q: For “Palladium 3^1-oxo-15-methoxycarbonyl-methyl-Rhodobacteriochlorin 13^1-(2-sulfoethyl)amide-17^3-c(RGDfK)amide potassium salt [compound 24]”, which “time at which NIR fluorescence reached peak values in the liver” value ([10]; 15 mg/kg i.v., post drug injection) is on record?
A: Its value is 5.5 h.

Q: What about the “time at which NIR fluorescence reached peak values in the tumor” value ([10]; 15 mg/kg i.v., post injection) of the same molecule?
A: Its value is roughly 2.5 h.

Q: What about the “fluorescence from the non-necrotic tumors” value ([10]; 24 hours post injection) of the same molecule?
A: The value was “practically no fluorescence”.

Q: And the “time of peak tumor fluorescence, averaged measurements” value ([10]; post drug injection, 16 animals (compound 13), 5 animals (compound 24))?
A: Its value is 1 to 4.5 h.

Q: And the “presence of drug in excised tumor” value ([8]; nine days post drug injection, N=3)?
A: Its value is “clearly present in the necrotic domain”.

Q: And the “accumulation in xenografts of primary tumors” value [11]?
A: Its value is 4 to 8 µM.
